Measurements reported in patent publication US20260250420A1 (SICHUAN KELUN BIOTECH BIOPHARMACEUTICAL, published 2026).

T1: human PTK7 on cells (tumor cells endogenously expressing PTK7); CHO-hPTK7, CHO-S-hPTK7 and 293T-hPTK7 … (human, UniProt Q13308 31-1070)
T1 construct: whole, on cells; The cell line of each value is named under assay; also called H1299; H358
T1 sequence (looked up): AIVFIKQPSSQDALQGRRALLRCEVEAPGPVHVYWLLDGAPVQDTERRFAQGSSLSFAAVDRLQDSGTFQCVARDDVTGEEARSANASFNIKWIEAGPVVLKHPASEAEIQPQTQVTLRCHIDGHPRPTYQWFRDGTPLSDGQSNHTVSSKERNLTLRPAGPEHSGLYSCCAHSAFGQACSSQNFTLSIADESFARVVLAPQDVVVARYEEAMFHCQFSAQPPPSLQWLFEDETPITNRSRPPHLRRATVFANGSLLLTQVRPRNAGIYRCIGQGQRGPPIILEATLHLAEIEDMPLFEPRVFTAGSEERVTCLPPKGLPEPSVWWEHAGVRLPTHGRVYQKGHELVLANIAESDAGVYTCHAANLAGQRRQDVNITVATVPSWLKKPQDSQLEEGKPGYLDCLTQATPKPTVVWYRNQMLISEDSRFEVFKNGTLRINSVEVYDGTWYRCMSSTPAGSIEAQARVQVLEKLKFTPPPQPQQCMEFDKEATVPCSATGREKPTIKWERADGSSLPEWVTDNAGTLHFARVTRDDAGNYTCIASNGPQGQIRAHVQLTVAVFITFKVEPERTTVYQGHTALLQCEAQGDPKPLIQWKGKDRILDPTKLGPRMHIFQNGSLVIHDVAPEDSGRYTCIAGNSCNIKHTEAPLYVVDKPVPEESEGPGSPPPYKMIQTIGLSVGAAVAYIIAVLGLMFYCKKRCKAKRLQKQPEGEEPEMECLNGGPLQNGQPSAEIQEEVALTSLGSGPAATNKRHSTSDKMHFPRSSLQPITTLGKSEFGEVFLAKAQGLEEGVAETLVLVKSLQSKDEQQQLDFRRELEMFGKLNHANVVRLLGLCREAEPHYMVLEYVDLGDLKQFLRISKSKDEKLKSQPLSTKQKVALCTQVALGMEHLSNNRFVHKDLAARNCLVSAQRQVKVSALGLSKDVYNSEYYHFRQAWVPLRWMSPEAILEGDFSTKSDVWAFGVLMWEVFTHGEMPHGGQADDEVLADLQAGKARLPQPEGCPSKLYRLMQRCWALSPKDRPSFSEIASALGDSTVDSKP

T2: human PTK7 protein (extracellular sequence of human PTK7 with C-terminal 6×His tag) (human, UniProt Q13308 31-704)
T2 construct: extracellular domain; Expressed transiently in HEK293 cells; also called human PTK7-His; human PTK7-His protein
T2 sequence: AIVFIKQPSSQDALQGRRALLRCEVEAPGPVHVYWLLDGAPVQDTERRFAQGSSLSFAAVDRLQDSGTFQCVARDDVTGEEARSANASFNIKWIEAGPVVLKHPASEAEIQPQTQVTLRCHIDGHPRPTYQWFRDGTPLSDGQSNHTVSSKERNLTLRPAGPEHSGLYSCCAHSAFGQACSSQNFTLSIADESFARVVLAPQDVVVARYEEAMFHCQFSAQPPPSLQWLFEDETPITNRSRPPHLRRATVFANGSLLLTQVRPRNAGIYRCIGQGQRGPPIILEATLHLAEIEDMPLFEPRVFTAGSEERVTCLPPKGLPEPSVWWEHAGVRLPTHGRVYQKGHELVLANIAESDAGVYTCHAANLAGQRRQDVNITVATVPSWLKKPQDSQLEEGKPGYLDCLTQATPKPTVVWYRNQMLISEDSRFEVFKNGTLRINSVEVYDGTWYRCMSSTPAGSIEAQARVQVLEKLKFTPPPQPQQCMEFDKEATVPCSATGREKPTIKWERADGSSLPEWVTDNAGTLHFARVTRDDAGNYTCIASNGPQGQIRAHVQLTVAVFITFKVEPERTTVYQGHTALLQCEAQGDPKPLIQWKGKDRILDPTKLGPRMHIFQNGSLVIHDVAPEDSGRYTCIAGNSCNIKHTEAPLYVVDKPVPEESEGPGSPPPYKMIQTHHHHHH

B1: 64A10HZ (anti-human PTK7 humanized antibody) (antibody, human IgG1, kappa, V domains shown)
VH: QVQLQESGPGLVKPSETLSLTCTVSGFSLTSYGVYWVRQPPGKGPEWLGVIWTSGNTNYNPSLKSRLTISKDNSKNQVSLKLSSVTAADTAVYYCVKHDGGNYVGVMNYWGQGTLVTVSS
VL: EIVMTQSPDFQSVTPKEKVTITCRASQSISDYLHWYQQKPDQSPKLLIKYASQSISGVPSRFSGSGSGSDFTLTINSLEAEDAATYYCQNGHSFPPTFGQGTKLEIKR
notes: Human IgG1 heavy chain constant region and human Kappa light chain constant region; expressed in CHO-S cells
B2: 101A6HZ (anti-human PTK7 humanized antibody) (antibody, human IgG1, kappa)
heavy: not shown
light: DIVMTQSPDSLAVSLGERATINCKASQDVGSAVIWYQQKPGQSPKLLIYWASTRHTGVPDRFSGSGSGTDFTLTISSLQAEDVAVYYCQQYSSYPLTFGQGTKLEIKRTVAAPSVFIFPPSDEQLKSGTASVVCLLNNFYPREAKVQWKVDNALQSGNSQESVTEQDSKDSTYSLSSTLTLSKADYEKHKVYACEVTHQGLSSPVTKSFNRGEC

Assays:
[1] = molecular target: T1, human PTK7 on cells (tumor cells …); assay: competition flow cytometry on 293T-hPTK7 cells, streptavidin-PE; competitor: biotin-labelled 64A10HZ
[2] = molecular target: T2, human PTK7 protein (extracellular …); assay: competition ELISA on coated human PTK7 protein; competitor: biotin-labelled 101A6HZ at a fixed concentration
Method: The human PTK7 protein was diluted to reach 1 μg/ml by using the CBS coating liquid, coated by a 96-well microtiter plate at a density of 100 μl/well, and stood overnight at 4° C.; and after the plate was washed and blocked, the biotin-labeled antibody and the to-be-detected antibody were added, and incubated for 2 h at room temperature. After the plate was washed, the secondary antibody was added for incubation, and finally was subjected to color development, then the reaction was terminated, and the absorbance at OD₄₅₀ nm was read by the microplate reader. The original data was imported into software for nonlinear curve fitting (four parameters).

| Binder | IC50 (read off the curve) [1] [ng/mL] | IC50 (read off the curve) [2] [ng/mL] |
| --- | --- | --- |
| B1 | ~300 | – |
| B2 | – | ~80 |
